Data: paper PMC4755751 (eLife, 2015)
Changes are numbered by the printed parent chain.

B1: untagged TP377 produced in the oxidative periplasm (VHH)
VHH: QVQLVESGGGPVEAGGSLRLSCAASGRSFSNSVMAWFRQAPGKEREFLSVLNWSSGRTSIADSVKGRFTMSRDPAKITVYLQMNGLKPEDTAVYYCAASNRGSLYTLDNQNRYEDWGQGTQVTVSS
notes: also called oxidized, disulfide bond-stabilized nanobody; source: E. coli BLR periplasm
B2: anti-Nup98 nanobody TP377 carrying a single N-terminal Alexa Fluor 647 maleimide (VHH)
VHH: B1 VHH
notes: not shown: His14-bdNEDD8, N-terminal, cleaved
B3: untagged TP377 produced in the reductive cytoplasm of E. coli BLR (VHH)
VHH: B1 VHH
notes: also called reduced variant; source: E. coli BLR cytoplasm
B4: untagged TP377 produced in the mildly oxidative cytoplasm of E. coli SHuffle (VHH)
VHH: B1 VHH
notes: also called SHuffle-expressed TP377; source: E. coli SHuffle cytoplasm; not shown: His14-bdNEDD8, N-terminal, cleaved
B5: unlabeled TP377 (competitor in Figure 5—figure supplement 1c) (VHH)
VHH: B1 VHH
B6: 3x Alexa Fluor 488-labeled TP377 (VHH)
VHH: B1 VHH with S7C, S71C
notes: also called 3xCys; source: E. coli cytoplasm, purified (Ni2+ chelate, bdNEDP1 cleavage), labeled with Alexa Fluor 488 maleimide; not shown: His14-bdNEDD8, N-terminal, cleaved
B7: Biotinylated His14-Avi-(GlySer)9-SUMOStar-(GlySer)9-tagged anti-Nup98 nanobody TP377 (VHH)
VHH: B1 VHH
notes: source: E. coli cytoplasm, co-expressed with BirA, purified (Ni2+ chelate, imidazole elution); not shown: His14, N-terminal, kept; (GlySer)9-scSUMOStar-(GlySer)9, N-terminal, kept

How the values were obtained:
[1] = biological target: T1, Biotinylated His14-Avi-bdSUMO-tagged Nup98^716-866 (Xenopus tropicalis, UniProt A0A1B8XZT4, biotin on the Avi-tag); assay: pull-down; biotinylated His14-Avi-bdSUMO-Nup98^716-866 immobilized on Streptavidin agarose; GFP-tagged TP377 bound without or with an equimolar amount or fivefold excess of nanobody competitor; elution by cleavage of the bdSUMO tag; SDS-PAGE, Coomassie; settings: both partners purified
T1 construct: also called Nup98 NPC anchor domain

[2] = biological target: T2, Nup98 in nuclear pore complexes of Xenopus laevis XL177 cells (Xenopus laevis XL177 cells, UniProt A0A8J1MFV7); assay: immunostaining of cells or tissue; digitonin-permeabilized Xenopus laevis XL177 cells, 1-10 nM fluorescent nanobody 15 min on ice, washed, then fixed; confocal laser scanning microscopy; settings: one partner purified
T2 construct: Xenopus laevis Nup98 within intact NPCs; also called (x)Nup98; source: endogenous, digitonin-permeabilized Xenopus laevis XL177 cells

[3] = biological target: T3, Nup98 (endogenous, Xenopus egg extract) (Xenopus laevis (egg extract), UniProt A0A8J1MFV7); assay: affinity purification with mass spectrometry; biotinylated tagged nanobody on magnetic Streptavidin beads, Xenopus egg extract (HSS) 1 h at 4°C, washes in S250 and in 50 mM Tris/HCl pH 7.5, 300 mM NaCl, 0.05% Tween-20, RanQ69L•GTP wash, elution by SUMOStar protease; SDS-PAGE, Coomassie, bands identified by mass spectrometry; settings: one partner purified
T3 construct: Xenopus Nup98, FG-repeat nucleoporin; source: endogenous, Xenopus egg extract (high-speed supernatant)

Binder | binding result [1] | other results
B1 | binds | –
B2 | – | binding result [2]: binds
B3 | binds | –
B4 | binds | –
B5 | binds | –
B6 | binds | –
B7 | – | binding result [3]: binds
